Earlier results as cited in paper PMC2853182.

Target: Protective antigen (PA) (Bacillus anthracis) (UniProt P13423)

## CMG2 soluble domain (from UniProt P58335)
  Kd: 2 nM
